Measurements: US20100158904A1 (GLENMARK PHARMACEUTICALS S A, published 2010)

B1: GBR500, humanized anti-human α2 integrin antibody (antibody, human IgG4, kappa, V domains shown)
VH: QVQLQESGPGLVKPSETLSLTCTVSGFSLTNYGIHWIRQPPGKGLEWLGVIWARGFTNYNSALMSRLTISKDNSKNQVSLKLSSVTAADTAVYYCARANDGVYYAMDYWGQGTLVTVSS
VL: DFVMTQSPAFLSVTPGEKVTITCSAQSSVNYIHWYQQKPDQAPKKLIYDTSKLASGVPSRFSGSGSGTDYTFTISSLEAEDAATYYCQQWTTNPLTFGQGTKVEIKR
notes: Its isotype-matched control is a humanized IgG4; also called GBR500-FITC; Biotin-GBR500
B2: TMC-2206, mouse anti-human α2 integrin antibody (BHA2.1 hybridoma) (antibody, V domains shown)
VH: QVQLKESGPGLVAPSQSLSITCTVSGFSLTNYGIHWVRQPPGKGLEWLGVIWARGFTNYNSALMSRLIITKDNSQSQVFLKMNSLQPDDSATYFCARANDGVYYAMDYWGQGTSVTVSS
VL: QFVLTQSPAFLSASPGEKVTMTCSANSSVNYIHWYQQKSGTSPKKWIYDTSKLASGVPVRFSGSGSGTSYSLTISSMETEDAATYYCQQWTTNPLTFGAGTRVELK
notes: Murine monoclonal antibody (Glenmark/Millipore, cat. MAB1998); also called MAB1998

Assays:
[1] = molecular target: human α2β1 integrin (VLA-2) expressed on human cancer cell lines (human) (UniProt P17301); assay: flow cytometry, hIgG4-FITC control on HT-1080 cells
Sequence of human α2β1 integrin (VLA-2) expressed on human cancer cell lines (human) (P17301 30-1181 E534K limits assumed, chain 1 of 2): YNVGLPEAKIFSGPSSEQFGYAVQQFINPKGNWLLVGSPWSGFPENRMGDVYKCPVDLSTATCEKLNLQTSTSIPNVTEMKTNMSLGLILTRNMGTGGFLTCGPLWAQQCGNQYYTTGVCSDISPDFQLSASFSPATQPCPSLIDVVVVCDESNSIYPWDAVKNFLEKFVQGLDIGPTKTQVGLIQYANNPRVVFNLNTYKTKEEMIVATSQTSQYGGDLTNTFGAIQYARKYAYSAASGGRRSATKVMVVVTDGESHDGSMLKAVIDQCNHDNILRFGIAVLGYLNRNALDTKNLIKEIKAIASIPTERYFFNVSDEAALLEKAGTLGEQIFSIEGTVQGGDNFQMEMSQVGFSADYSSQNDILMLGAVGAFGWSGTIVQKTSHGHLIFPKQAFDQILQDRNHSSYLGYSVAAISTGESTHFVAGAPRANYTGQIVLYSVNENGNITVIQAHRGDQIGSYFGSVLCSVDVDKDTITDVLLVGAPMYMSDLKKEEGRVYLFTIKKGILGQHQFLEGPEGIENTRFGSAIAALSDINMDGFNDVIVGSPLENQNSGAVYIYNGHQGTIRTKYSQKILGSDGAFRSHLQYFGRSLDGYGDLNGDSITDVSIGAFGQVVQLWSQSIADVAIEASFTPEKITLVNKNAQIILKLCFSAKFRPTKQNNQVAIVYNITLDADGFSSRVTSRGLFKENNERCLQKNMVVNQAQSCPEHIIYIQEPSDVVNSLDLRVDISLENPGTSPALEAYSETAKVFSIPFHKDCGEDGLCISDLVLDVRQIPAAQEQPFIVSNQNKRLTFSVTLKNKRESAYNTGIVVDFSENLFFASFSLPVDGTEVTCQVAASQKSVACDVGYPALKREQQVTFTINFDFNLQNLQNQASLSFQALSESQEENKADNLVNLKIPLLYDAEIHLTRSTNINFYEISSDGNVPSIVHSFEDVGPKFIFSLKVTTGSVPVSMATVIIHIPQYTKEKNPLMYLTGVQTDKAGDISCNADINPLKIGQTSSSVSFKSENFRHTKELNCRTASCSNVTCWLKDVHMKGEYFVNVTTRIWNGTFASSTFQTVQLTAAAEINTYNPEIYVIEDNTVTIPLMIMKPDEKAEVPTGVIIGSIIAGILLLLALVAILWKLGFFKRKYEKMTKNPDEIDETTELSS
Sequence of human α2β1 integrin (VLA-2) expressed on human cancer cell lines (human) (chain, as listed by the source limits assumed, chain 2 of 2): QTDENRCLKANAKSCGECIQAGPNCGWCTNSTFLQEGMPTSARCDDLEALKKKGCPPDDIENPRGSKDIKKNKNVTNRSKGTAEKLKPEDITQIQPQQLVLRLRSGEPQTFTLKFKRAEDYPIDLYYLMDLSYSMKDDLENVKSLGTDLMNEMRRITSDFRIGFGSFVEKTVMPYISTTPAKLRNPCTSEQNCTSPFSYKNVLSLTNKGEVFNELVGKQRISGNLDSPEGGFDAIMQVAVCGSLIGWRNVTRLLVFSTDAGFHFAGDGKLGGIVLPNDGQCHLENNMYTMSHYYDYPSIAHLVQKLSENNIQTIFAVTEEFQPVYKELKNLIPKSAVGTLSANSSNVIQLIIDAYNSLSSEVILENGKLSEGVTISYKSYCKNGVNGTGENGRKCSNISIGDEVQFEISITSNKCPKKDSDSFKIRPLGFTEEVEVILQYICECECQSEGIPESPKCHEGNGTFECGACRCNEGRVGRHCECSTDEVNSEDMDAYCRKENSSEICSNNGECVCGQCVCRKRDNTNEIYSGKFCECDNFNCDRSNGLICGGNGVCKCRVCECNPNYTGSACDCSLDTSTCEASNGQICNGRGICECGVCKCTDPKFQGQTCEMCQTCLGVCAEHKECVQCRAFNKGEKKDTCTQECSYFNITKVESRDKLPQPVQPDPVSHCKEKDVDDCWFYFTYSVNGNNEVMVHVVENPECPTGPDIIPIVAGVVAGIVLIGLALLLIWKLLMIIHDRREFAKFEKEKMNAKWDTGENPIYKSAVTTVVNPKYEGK

[2] = molecular target: human α2β1 integrin (VLA-2) expressed on human cancer cell lines (human) (UniProt P17301); assay: flow cytometry, 10 µg/mL hIgG4-FITC control on SK-BR-3 cells
[3] = molecular target: human α2β1 integrin (VLA-2) expressed on human cancer cell lines (human) (UniProt P17301); assay: flow cytometry, 10 µg/mL hIgG4-FITC control on AsPC-1 cells
[4] = molecular target: human α2β1 integrin (VLA-2) expressed on human cancer cell lines (human) (UniProt P17301); assay: flow cytometry, 10 µg/mL hIgG4-FITC control on HPAF-II cells
[5] = molecular target: T1, human α2β1 integrin (VLA-2) expressed on human cancer cell lines (human, UniProt P17301 30-1181; P05556 21-798); assay: inhibition of adhesion of AsPC-1 cells to human collagen type I, mean of 2 experiments
T1 construct: also called α2 integrin; CD49b (α2 subunit)
T1 sequence (P17301 30-1181 E534K limits assumed, chain 1 of 2): as the sequence (P17301 30-1181 E534K limits assumed, chain 1 of 2) above
T1 sequence (P05556 21-798 limits assumed, chain 2 of 2): as the sequence (chain, as listed by the source limits assumed, chain 2 of 2) above
Experimental: (§1) Ninety six well ELISA plates (black cliniplate, Thermo Firsher scientific, cat n^o 9502867) were coated with 100 μl of human collagen type I (SIGMA, cat n^o C7774) at 50 μg/mL in Acetic Acid 0.02N or in PBS. Collagen was either diluted in acetic acid and incubated for 1 hour at 37° C. or diluted in PBS and incubated overnight at 4° C. Plates were blocked with 150 μl of PBS supplemented with 0.1% BSA or 1% BSA (Sigma, cat n^o A3059). Cells were first labelled with CFSE (Invitrogen cat n^o C34554) into serum free DMEM medium (PAA, cat n^o E15-005). Three μl of a 15 mM CFSE solution was added to 5 ml cells at a concentration between 1×10⁶ cells/ml to 0.6×10⁶ cells/ml. Cells were incubated with CFSE for 10 minutes at 37° C. and CFSE excess was removed by centrifugation of the cells at 900 rpm for 3 min. CFSE-labelled cells were resuspended at a concentration between 0.6×10⁶ to 1×10⁶ cells/ml in DMEM supplemented with 0.1% BSA. […] Wells in the plates were filled with PBS and fluorescence with excitation at 498 nm and emission at 525 nm was measured using Synerg HT2 fluorometer. Data were analyzed using PRISM software. Activity of the anti-VLA-2 antibody was expressed as EC₅₀ which is defined as the concentration of antibody that provokes a response halfway between the baseline and the maximum response. […]

[6] = molecular target: T1, human α2β1 integrin (VLA-2) expressed …; assay: inhibition of adhesion of HPAF-II cells to human collagen type I, mean of 2 experiments
Experimental: as §1

[7] = molecular target: T1, human α2β1 integrin (VLA-2) expressed …; assay: inhibition of adhesion of SK-BR-3 cells to human collagen type I, mean of 2 experiments
Experimental: as §1

[8] = molecular target: T1, human α2β1 integrin (VLA-2) expressed …; assay: inhibition of adhesion of CFSE-labelled SK-BR-3 cells to human collagen type I, experiment I
Experimental: as §1

[9] = molecular target: T1, human α2β1 integrin (VLA-2) expressed …; assay: inhibition of adhesion of CFSE-labelled HPAF-II cells to human collagen type I, experiment II
Experimental: as §1

[10] = molecular target: T1, human α2β1 integrin (VLA-2) expressed …; assay: inhibition of adhesion of HT-1080 cells to human collagen type I, mean of 3
Experimental: as §1

[11] = molecular target: T1, human α2β1 integrin (VLA-2) expressed …; assay: inhibition of adhesion of CFSE-labelled AsPC-1 cells to human collagen type I, experiment I
Experimental: as §1

[12] = molecular target: T1, human α2β1 integrin (VLA-2) expressed …; assay: inhibition of adhesion of CFSE-labelled SK-BR-3 cells to human collagen type I, experiment II
Experimental: as §1

[13] = molecular target: T1, human α2β1 integrin (VLA-2) expressed …; assay: inhibition of cell adhesion to human collagen type I; ratio between two cell lines
Experimental: as §1

[14] = molecular target: T1, human α2β1 integrin (VLA-2) expressed …; assay: inhibition of adhesion of CFSE-labelled AsPC-1 cells to human collagen type I, experiment II
Experimental: as §1

[15] = molecular target: T1, human α2β1 integrin (VLA-2) expressed …; assay: inhibition of adhesion of CFSE-labelled HPAF-II cells to human collagen type I, experiment I
Experimental: as §1

| Molecule | MFI [1] | MFI [2] | MFI [3] | MFI [4] | EC50 [5] | EC50 [6] | EC50 [7] | EC50 [8] | EC50 [9] | EC50 [10] | EC50 [11] | EC50 [12] | fold EC50 on HPAF-II cells against EC50 on AsPC-1 cells [13] | EC50 [14] | EC50 [15] |
| --- | --- | --- | --- | --- | --- | --- | --- | --- | --- | --- | --- | --- | --- | --- | --- |
| hIgG4 isotype control antibody | 4.9 | 3.4 | 6.8 | 14.9 |  |  |  |  |  |  |  |  |  |  |  |
| B1 |  |  |  |  | 0.041 µg/mL | 0.163 µg/mL | 0.036 µg/mL | 0.039 µg/mL | 0.103 µg/mL | 0.076 µg/mL | 0.047 µg/mL | 0.032 µg/mL | 3.9 fold | 0.036 µg/mL | 0.224 µg/mL |
| B2 |  |  |  |  | 0.08 µg/mL | 0.29 µg/mL |  |  | 0.253 µg/mL | 0.097 µg/mL | 0.074 µg/mL |  | 3.6 fold | 0.087 µg/mL | 0.326 µg/mL |
